Reference: article PMC6719446 (The Journal of Cell Biology, 2019)

Molecular target: T1, Purified ASB11 bound on anti-Myc beads (human (ASB11 cDNA amplified from 293T …, UniProt Q8WXH4 1-323))
T1 sequence (looked up): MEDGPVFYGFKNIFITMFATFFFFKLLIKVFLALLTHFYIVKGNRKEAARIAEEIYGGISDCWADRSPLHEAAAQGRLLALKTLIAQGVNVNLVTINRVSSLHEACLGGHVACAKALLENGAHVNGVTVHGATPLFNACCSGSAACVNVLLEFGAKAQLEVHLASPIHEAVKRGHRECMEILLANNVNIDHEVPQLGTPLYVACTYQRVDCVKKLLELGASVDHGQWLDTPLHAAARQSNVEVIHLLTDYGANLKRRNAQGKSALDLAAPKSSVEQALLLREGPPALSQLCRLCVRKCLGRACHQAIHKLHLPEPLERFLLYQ
Assay: pull-down

B1: 3xFlag-BIK (natural protein, UniProt Q13323 1-160, looked up)
chain: MSEVRPLSRDILMETLLYEQLLEPPTMEVLGMTDSEEDLDPMEDFDSLECMEGSDALALRLACIGDEMDVSLRAPRLAQLSEVAMHSLGLAFIYDQTEDIRDVLRSFMDGFTTLKENIMRFWRSPNPGSWVSCEQVLLALLLLLALLLPLLSGGLHLLLK
Does B1 bind?
Result: binds
